B1: C7 (peptide)
peptide: RPPIFIRRL
modifications: not checked
B2: C6 (peptide)
peptide: QPRAPIRPI
modifications: not checked
B3: Sur 54-62 (peptide)
peptide: LAQCFFCFK

Experiments:
HLA-B7 (human) = test: assembly assay for peptide binding to MHC class I (HLA-B7)
HLA-A11 (human) = test: assembly assay: stabilisation of 35S-labelled HLA-A11 from TAP-deficient cell lysate, W6/32 immunoprecipitation, IEF gel; settings: remark: other sources report otherwise

Binder | C50 (HLA-B7 (human)) | C50 (HLA-A11 (human))
B1 | 0.5 µM | –
B2 | 0.1 µM | –
B3 | – | 0.4 µM
